Test results published in patent publication US20250092426, “CAS ENDONUCLEASES AND RELATED METHODS” (Flagship Pioneering Innovations VII, LLC, published 2025).

Target: T1, CasEnd-14 (synthetic construct)
T1 chain: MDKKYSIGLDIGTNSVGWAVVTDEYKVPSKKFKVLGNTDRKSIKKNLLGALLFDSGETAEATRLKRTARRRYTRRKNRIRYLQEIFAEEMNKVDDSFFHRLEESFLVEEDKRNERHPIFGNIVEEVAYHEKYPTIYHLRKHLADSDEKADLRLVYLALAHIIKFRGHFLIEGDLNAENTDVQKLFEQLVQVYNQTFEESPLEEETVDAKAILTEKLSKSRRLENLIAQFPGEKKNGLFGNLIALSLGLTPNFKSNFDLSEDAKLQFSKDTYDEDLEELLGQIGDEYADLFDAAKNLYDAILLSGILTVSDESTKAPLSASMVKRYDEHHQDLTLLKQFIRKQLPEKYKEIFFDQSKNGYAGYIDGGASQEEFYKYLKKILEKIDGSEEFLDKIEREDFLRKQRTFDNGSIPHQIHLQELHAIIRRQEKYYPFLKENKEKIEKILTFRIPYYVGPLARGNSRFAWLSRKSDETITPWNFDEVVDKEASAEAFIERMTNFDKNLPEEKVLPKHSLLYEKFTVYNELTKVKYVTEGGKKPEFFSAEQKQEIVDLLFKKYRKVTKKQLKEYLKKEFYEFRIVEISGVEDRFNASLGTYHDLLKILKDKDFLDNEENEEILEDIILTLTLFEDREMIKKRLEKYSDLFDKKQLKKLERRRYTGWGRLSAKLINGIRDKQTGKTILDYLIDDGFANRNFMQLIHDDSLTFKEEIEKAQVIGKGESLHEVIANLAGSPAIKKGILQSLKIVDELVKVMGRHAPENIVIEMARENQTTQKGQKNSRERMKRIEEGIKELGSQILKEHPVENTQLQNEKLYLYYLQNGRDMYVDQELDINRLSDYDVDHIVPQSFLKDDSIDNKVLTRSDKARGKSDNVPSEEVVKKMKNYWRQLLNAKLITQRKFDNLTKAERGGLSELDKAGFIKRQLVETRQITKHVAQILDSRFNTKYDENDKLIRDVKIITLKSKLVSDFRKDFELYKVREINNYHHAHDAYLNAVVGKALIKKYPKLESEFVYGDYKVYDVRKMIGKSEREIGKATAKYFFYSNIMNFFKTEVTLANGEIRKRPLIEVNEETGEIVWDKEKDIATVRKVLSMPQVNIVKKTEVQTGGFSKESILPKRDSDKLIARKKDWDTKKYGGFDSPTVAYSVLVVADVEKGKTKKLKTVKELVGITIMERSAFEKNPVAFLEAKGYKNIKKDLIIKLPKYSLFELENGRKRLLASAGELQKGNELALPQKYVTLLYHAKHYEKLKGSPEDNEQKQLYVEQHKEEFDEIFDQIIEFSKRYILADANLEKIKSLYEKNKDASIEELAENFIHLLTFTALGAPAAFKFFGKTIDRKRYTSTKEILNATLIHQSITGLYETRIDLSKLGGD
Assay: cell_activity; +++; HEK293T; PAM not stated
Outline: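 Editing activity was scored as the fraction of GFP+ cells on day 4 by flow cytometry. BFP-expressing HEK293T cells (250,000) received by nucleofection 200 ng plasmid for the RT-Cas fusion protein and 200 ng template RNA plasmid designed to convert BFP to GFP.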

B1: BFP-to-GFP template RNA ; BFP reporter protospacer (ssRNA ; dsDNA)
RNA: GCCGAAGCACUGCACGCCGUGUUUUAGAGCUAGAAAUAGCAAGUUAAAAUAAGGCUAGUCCGUUAUCAACUUGAAAAAGUGGCACCGAGUCGGUGCACCCUGACGUACGGCGUGCAGUGCUU
DNA 1: GCCGAAGCACTGCACGCCGT
DNA 2: ACGGCGTGCAGTGCTTCGGC
- activity: ≥ 100 % of reference
